Blank lines part the entries; values can stand above or below the substance they belong to.
Assays:
[1] = molecular target: PD-1 on T cells (species not stated in these experiments)
[2] = molecular target: PD-1 on T cells (species not stated in these experiments); remark: listed apart in the source
[3] = molecular target: PD-1 on T cells (species not stated in these experiments); remark: listed apart in the source
[4] = molecular target: murine PD-1 on mouse T cells (Balb/c LN T cells, DO11.10 CD4+ T cells, TCR transgenic LN T cells) (murine) (UniProt Q02242)
[5] = molecular target: human PD-1 on human T cells or Jurkat T cells (human)
[6] = molecular target: human PD-1 on human T cells or Jurkat T cells (human); remark: listed apart in the source
[7] = molecular target: human PD-1 gamma 2a fusion protein (human PD-1 extracellular region fused to murine Ig gamma2a hinge-CH2-CH3) (human; murine) [IgG part: P01863]; experiment: ELISA: biotinylated PD-L1Fc on immobilized human PD-1Fc, streptavidin-HRP
[8] = molecular target: human PD-1 on human T cells or Jurkat T cells (human); remark: listed apart in the source

- % CD69+ T cells (flow cytometry), 72 hours [1]: 42 % CD69+
- % IL-2R+ (CD25) T cells (flow cytometry), 79 hours [2]: 15 % IL-2R+
- % apoptotic T cells (propidium iodide and annexin positive), 72 hours [3]: 12 % apoptotic
Substance: PD-L1.Fc (species not stated in these experiments) (Fc fusion)

- percentage of dividing cells by propidium iodide staining (DNA content), day 4 (% dividing cells) [4]: 11
Substance: mPD-L1.Fc fusion protein

Substance: human PD-L1.Ig (extracellular region of human PD-L1 fused to murine Ig gamma2a hinge-CH2-CH3) (from UniProt P01863) (Fc fusion)
- proliferation (3H-thymidine) of human CD4+ T cells, 96 hours [5]: 69 % decrease
- proliferation of human CD4+ T cells, suboptimal anti-CD3 (1 µg/ml) with soluble anti-CD28 [6]: 80 % reduction
- ED50 [7]: 108 ng/mL
- IL-10 secretion (ELISA) by human CD4+ T cells [8]: 60 % decrease
- interferon-γ secretion (ELISA) by human CD4+ T cells [8]: 80 % decrease

Source: patent US7029674B2
